B1: wild-type (WT) calsequestrin type 1 (CSQ1), rabbit [rabbit] / skeletal triadin 95 kDa (trisk95) [rabbit (endogenous in skeletal muscle SR vesicles)] (parent)
chain 1: EEGLDFPEYDGVDRVINVNAKNYKNVFKKYEVLALLYHEPPEDDKASQRQFEMEELILELAAQVLEDKGVGFGLVDSEKDAAVAKKLGLTEEDSIYVFKEDEVIEYDGEFSADTLVEFLLDVLEDPVELIEGERELQAFENIEDEIKLIGYFKNKDSEHYKAFKEAAEEFHPYIPFFATFDSKVAKKLTLKLNEIDFYEAFMEEPVTIPDKPNSEEEIVNFVEEHRRSTLRKLKPESMYETWEDDMDGIHIVAFAEEADPDGYEFLEILKSVAQDNTDNPDLSIIWIDPDDFPLLVPYWEKTFDIDLSAPQIGVVNVTDADSVWMEMDDEEDLPSAEELEDWLEDVLEGEINTEDDDDEDDDDDDDD
chain 2: MTEITAEGNASTTTTVIDSKNGSVPKSPGKVLKRTVTEDLVTTFSSPAAWLLVIALIITWSAVAVVMFDLVDYKNFSASSIAKMGSDPLKLVHDAVEETTDWIYGFFSLLSDIISSDGDEEDDEGDEDTAKGEIEEPPLKRKDIHKEKIEKQEKPERKIPTKVVHKEKEKEKEKVKEKEKPEKKATHKEKLEKKEKPETKTVTKEEKKARTKEKIEEKTKKEVKGVKQEKVKQTVAKAKEVQKTPKPKEKESKETAAVSKQEQKDQYAFCRYMIDIFVHGDLKPGQSPAIPPPSPTEQASRPTPALPTPEEKEGEKKKAEKKVTTETKKKAEKEDAKKKSEKETDIDMKKKEPGKSPDTKPGTVKVTTQAATKKDEKKEDSKKAKKPAEEQPKGKKQEKKEKHEEPAKSTKKEHAAPSEKQAKAKIERKEEVSAASTKKAVPAKKEEKTTKTVEQETRKEKPGKISSVLKDKELTKEKEVKVPASLKEKGSETKKDEKTSKPEPQIKKEEKPGKEVKPKPPQPQIKKEEKPEQDIMKPEKTALHGKPEEKVLKQVKAVTTEKHVKPKPAKKAEHQEKEPPSIKTDKPKSTSKGMPEVTESGKKKIEKSEKEIKVPARRESHQLQNVTKAEKPARGSKEGFEDVPASKKAKEEAEEVSSTKKQKSPISFFQCVYLDGYNGYGFQFPVTPAQYPGESSGKPNSPGPKQ

The values below come from PMC4389316, “C-terminal residues of skeletal muscle calsequestrin are essential for calcium binding and for skeletal ryanodine receptor inhibition” (Skeletal Muscle, 2015).

The variants in this assay derive from B1. As to the kind of experiment: co-immunoprecipitation (CSQ1 IP, Western blot densitometry). As to conditions: with skeletal triadin 95 kDa (trisk95) [rabbit (endogenous in skeletal muscle SR vesicles)]; 1 mM Ca2+; parent: 100; read off a plot.
Regarding chain 1 EEGLDFPEYDGVDRVINVNAKNYKNVFKKYEVLALLYHEPPEDDKASQRQFEMEELILELAAQVLEDKGVGFGLVDSEKDAAVAKKLGLTEEDSIYVFKEDEVIEYDGEFSADTLVEFLLDVLEDPVELIEGERELQAFENIEDEIKLIGYFKNKDSEHYKAFKEAAEEFHPYIPFFATFDSKVAKKLTLKLNEIDFYEAFMEEPVTIPDKPNSEEEIVNFVEEHRRSTLRKLKPESMYETWEDDMDGIHIVAFAEEADPDGYEFLEILKSVAQDNTDNPDLSIIWIDPDDFPLLVPYWEKTFDIDLSAPQIGVVNVTDADSVWMEMDDEEDLPSAEELEDWLEDVLEGEINTEDDDDEDDDDDDDA [chain 1 D367A], the percent of parent (% relative binding) amounted to 86.

With chain 1 EEGLDFPEYDGVDRVINVNAKNYKNVFKKYEVLALLYHEPPEDDKASQRQFEMEELILELAAQVLEDKGVGFGLVDSEKDAAVAKKLGLTEEDSIYVFKEDEVIEYDGEFSADTLVEFLLDVLEDPVELIEGERELQAFENIEDEIKLIGYFKNKDSEHYKAFKEAAEEFHPYIPFFATFDSKVAKKLTLKLNEIDFYEAFMEEPVTIPDKPNSEEEIVNFVEEHRRSTLRKLKPESMYETWEDDMDGIHIVAFAEEADPDGYEFLEILKSVAQDNTDNPDLSIIWIDPDDFPLLVPYWEKTFDIDLSAPQIGVVNVTDADSVWMEMDDEEDLPSAEELEDWLEDVLEGEINTEDDDDEDDDDDADA [chain 1 D365A D367A], the percent of parent (% relative binding) was determined as 110.

In the case of chain 1 EEGLDFPEYDGVDRVINVNAKNYKNVFKKYEVLALLYHEPPEDDKASQRQFEMEELILELAAQVLEDKGVGFGLVDSEKDAAVAKKLGLTEEDSIYVFKEDEVIEYDGEFSADTLVEFLLDVLEDPVELIEGERELQAFENIEDEIKLIGYFKNKDSEHYKAFKEAAEEFHPYIPFFATFDSKVAKKLTLKLNEIDFYEAFMEEPVTIPDKPNSEEEIVNFVEEHRRSTLRKLKPESMYETWEDDMDGIHIVAFAEEADPDGYEFLEILKSVAQDNTDNPDLSIIWIDPDDFPLLVPYWEKTFDIDLSAPQIGVVNVTDADSVWMEMDDEEDLPSAEELEDWLEDVLEGEINTEDDDDEDDDADADA [chain 1 D363A D365A D367A], the percent of parent (% relative binding) came out at 84.
